Assay: soluble on expression in E. coli; label from the status in PepcDB or PDB records

Row | Sequence | soluble on expression in E. coli
1 | MNTDTFMCSSDEKQTRSPLSLYSEYQRMEIEFRAPHIMPTSHWHGQVEVNVPFDGDVEYLINNEKVNINQGHITLFWACTPHQLTDTGTCQSMAIFNLPMHLFLSWPLDKDLINHVTHGMVIKSLATQQLSPFEVRRWQQELNSPNEQIRQLAIDEIGLMLKRFSLSGWEPILVNKTSRTHKNSVSRHAQFYVSQMLGFIAENYDQALTINDVAEHVKLNANYAMGIFQRVMQLTMKQYITAMRINHVRALLSDTDKSILDIALTAGFRSSSRFYSTFGKYVGMSPQQYRKLSQQRRQTFPG | soluble
2 | MKTINLSIFGLGNVGLNLLRIIRSFNEENRLGLKFNVVFVADSLHSYYNERIDIGKVISYKEKGSLDSLEYESISASEALARDFDIVVDATPASADGKKELAFYKETFENGKDVVTANKSGLANFWPEIMEYARSNNRRIRYEATVAGGVPLFSFIDYSVLPSRIKKFRGIVSLTINYFIRELANKREFDDVLSEATKLGIVEKNYKDDLTGLDAARKSVILCNHLYGSSYRLSDVFYEGILDQDRSFGKNERLVTETGIVNGKPSAESRIKSLDSNDYLLTLGKGSLGYQLQTDTNGTLNVSDLYDGPYETAGAVMNDLVILSMFTV | soluble
3 | MAHHHHHHMSSLDSVREDILDVFHIFDEDGSGSITMQELKRAIYTITGIRISRIDLSILVRTCKEEMLKESARKSEAGANVAGKAGEKLWTPEPESEVNTVDPQLFAAVVLKTLNRRTQEQELLFTFRLLEDKDYPGFITKDSLKRASADIDEHLTDQEVNEMFDKLVTGVSAAAIDFVTFSSLMETLRKSI | soluble
4 | MSVNEADLNAVEEQLGRAPRGVLDISYRSPDGVPGVVMTAPKLDDGTPFPTLYYLTDPRLTTEASRLEVALVMKWMTDRLSTDEELRADYQRAHEHFLAKRNAIEDLGTDFSGGGMPDRVKCLHVLIAYALAEGPDHFRLGTEAVAMAAEHGDLRGTAIPEDWPTVQDLGINMEDFDFSRAGGA | not soluble
5 | MSLGNGVGTCDLPPQFAYFFQFSHLSATRNLLCLDLDETLVCSKQRTPQTRETEDFYVVVEQRGKRYEFSVIKRPGLDVFLVSMAELYDLAIFTYAIKEYGDKIVNIIDPNRLIKYRMYRQHCVKYLVDKRHVIVKDLSRVGKPHSSILLIDNSASTGIWQRNNFLLVPSFYGDERDKVLYELKELLEGISKCKDFYTEIQSLRSVEGHHHHHH | soluble
6 | MGSDKIHHHHHHMRSADSSPAYSPIGSLSSSHSFDSIPDQRMNKSLLSLACLILCGMPAIAQQTGPAERSGEPSLAERVFGLEQKQKKLKVYLGIQSFYDQPLVDDESHIGHFKVQELRMSAHGELNRHLSFDWRQRLNRAADGTSFADNLSNAIDIAGVDWHPNDKVSFFFGRQYARFGGIEYDMNPVEIYQYSDLVDYMTCYTSGVNFAWNFHPEQQLQLQVLNAYNNRFADRYHVTPDVATATSYPLLYSAQWNGTLLGGALHMRYAVSMAHQAQERNMWYFTAGNLFNPGKRINGYLDLTYSIEGLDDKGIMTARYGKGKTLTDVKYYALVSKWNFRIFDQVNLFLKGMYENGYAPAQYGESSHTRHSYGYMGGVEYYPTETNFRLFVTYIGRHYRYSATETESTNALRAGLIYQIPFL | not soluble
7 | GKPFYYDVNFNLADSRAYITKYENPKGLLGDYYVGKEIGEIWGVETLGFFTSEEDIKNHADQSWCTSYPGTRPLAPGDLKFKDENKDGKITDGAWTLEDHGDYKIIGNSRARYTFGLSANAQWNGFDLSLFAQGVGKKDYYPGTGDLYFWGIYAQPWTNITKGNMYDHWTEENPDAYFPRMKAYVAENTDRECGVVQTRYLQNAAYMRLKNLTVGYTLPKVLLNKIGIERLRIFFSGDNLCEFSGLYKHYKVDPESLGNIVYPLQRSYSFGLNVTF | not soluble
8 | MVPTPKPVVDRMLELADVDETDVLYDLGSGDGRIVIRAARTHGARGVGIEIDPDLVKKARKNAKEAGVADLVEFRQGDLFEADISEATVVTLYLLPSVNQKLRPILFEQLSPGTPVVSHDFDMGRWAPDRTVDLEGDTVYRWTIPLEHHHHHH | not soluble
9 | MSGLPCNERMDCTQCPKAVENSIHYTHNKKGFHLPPHKCETNILFFLLKGQILINSEEYAGTIINSGEFVLQAIASKVEILAMTDSEGILYTFDDPKAFCYDRYTYILKNVPPPLISEPLKIKPEIKLFLEGVASYLNADKICKELLEFKRKELYYLLAHYYTDYELSPVVHSLSQYTSSFEYFILKHHKQIKSVEEFAQLGGYSVTTFRRIFKAIFNEPAYEWMMKQRKESILYQLRYTDASISEICFGHGFESLSHFSNFCKKSFGDSPRNIRKKEKEEISPNT | not soluble
10 | MACRQEPQPQGPPPAAGAVASYDYLVIGGGSGGLASARRAAELGARAAVVESHKLGGTCVNVGCVPKKVMWNTAVHSEFMHDHADYGFPSCEGKFNWRVIKEKRDAYVSRLNAIYQNNLTKSHIEIIRGHAAFTSDPKPTIEVSGKKYTAPHILIATGGMPSTPHESQIPGASLGITSDGFFQLEELPGRSVIVGAGYIAVEMAGILSALGSKTSLMIRHDKVLRSFDSMISTNCTEELENAGVEVLKFSQVKEVKKTLSGLEVSMVTAVPGRLPVMTMIPDVDCLLWAIGRVPNTKDLSLNKLGIQTDDKGHIIVDEFQNTNVKGIYAVGDVCGKALLTPVAIAAGRKLAHRLFEYKEDSKLDYNNIPTVVFSHPPIGTVGLTEDEAIHKYGIENVKTYSTSFTPMYHAVTKRKTKCVMKMVCANKEEKVVGIHMQGLGCDEMLQGFAVAVKMGATKADFDNTVAIHPTSSEELVTLR | soluble
11 | IEAENHKVTDKIKNAQPFLVDVVPAKSVIPELNDDAQKTLLHAGPPIQWSEMTGPMKGACIGAALFERWADNEEDALKIFEAGEVRFIPCHHVKAVGPMGGITSGNMPVFVVENRLEGNEAYCILNEGIGKVLRFGAYSQEVVDRLDWIKDVLGPTIAKALKLSEEGLNLNVLIARSITMGDEFHQRNIAASLNFLKELSPLIIKTDIPEDQKYEVIKFLADTDQFFLNVMMATGKAIVDGARKDTNGTIVTTMTRNGVNFGVRIAETGDQWHTAPVNTPKGLYFTGFSEEDGNPDVGDSAITETVGVGAMAMVAAPGVTRFVGAGGFEDALATSNEMAKICEGNNPTFSIPTWDFQGTCLGIDIRKVVELGITPIINTGIAHKNAGVGQIGAGTVRAPLGCFEKALEAYAEKLGITVE | not soluble
12 | SLIENVDAQADSSWPHRGQIEVRNLTVKYTEAGHAVLKNLSFSAEGRQRVGILGRTGSGKSSLFNALLKLVYTDGEISIDGVNWNKMPLEKWRKAFGVVPQKVFIFTGPLRMNLDPYGCHSDEELWRVAEEVGLKTVIEQFPDKLDFQLEYGGYVLSNGHKQLICLARSILSGARILLLDEPSAHLDPVTIKVLKKTLRQSFSTCTILLSEHKVEPLLECDSFLMMDKGQVKTYDSIQKLLNETSDLKQAISPAE | not soluble
13 | SAVFSDPQIAMVGETYKEITTRLGTCGCFATGEVSFENQGRSRVMLRNKGILHVYGEQGTGRFLGAEMMGPNAEHLAHLLAWAHQNKMTVSEMLDMPFYHPVIEEGVRTALRDLNAKLHLGPEMIKHCMDCGPGC | not soluble
14 | MELQQLPQHVRDAFHAPNTPPRQLGVAWDYGWRVGNVAFSQVIHPDRSAWSARVRDKLQPQGLRVVRPLKSTDGRYINAGWRANSFEEGTLARRVDETVVAALRLDTALADIDVPDSFSEPDSHDLFSLADHSAWAPEPMVALGVTSDAEAVFLNPAQLTAQRLLPKIVLLLRDIDAPIQVTHADMFATTIYSGNQMPVVTDLVGVARPYGYTAAVCIVDALLAGAVDEGIIDRFSHIQHRDQLLLRALVYRIAVHALHPESTSNTGTNLEWVSQTIMSRASVTL | soluble
15 | MDSIPLEKPHVVSLIGGFGYREPIFRKVLTTAMLDPGINYTLISGPSLDPSKLGGVPKNVRILNFVEDTYPYIKSSDAVIAPGGHSTIMEALSFGVPILSFPDEGHSEQESNAAVVEEEGYGRMLSYSTPPEVILECIREVIEDEAYRNKVERLQRLSGELEHHHHHH | soluble
16 | MSDGSMDDDGRLFPDLGSSTHDNREIRVRFLNRCAYPVDVFWLNPSKQPTKYGTLAQKKYLDIKTFKDHPWVARRSFDGCKVLVNEKEVFWPEPAPRMNLIVRNHCVITMKVQSLREIAGRSFLRHNPTEVPNKIKGLPRELQFEVKHFLDRKQEYSEIVCRSIPPPGPQRPQQ | not soluble
17 | MAHHHHHHMTSGYSSYAGASGSGHERFTRILVVGEASVGKTLLIRRLCDHIFGDTSITSTDEGSAPESPYQSQSAVADDDLGPEWGPTVGIAVDALKRSTTVLEDTVTMPNLAMSTPYDTAAVARYTAPSCSLHSGENGNYPHCSVYDTPCSTSGYGRSNSVLQYRGQGFVGSNTSFALLHQLTSASPPRRQTVLQTVEFHELGGTHGYRDVARLLLRNIHYDGVMFVYHRRSLTSTLYLKEWYRWIRSVFSASPDVGSHYGAEAKKPVKCSKKMPRFMLVGTQLPGDELPAAAAGLTKAAAETLHMASGAISDETLLDGNLEVKLRALQSPQTLTQRRGVRHALSKVFRRLAWPYHMWWCVSHPFFLLSKQYQEELGPRSRLGACGSRVVERFVWLFYQAEQALLYVMAVILFGPYQEAVVLGHSRPKQTLEEMLKDELCVSQAHVCRLESNISLQSSLDDMVAFFDILLRQDAPDEGR | not soluble
18 | MESIKLSQKAEEEIVNAARMAALSNLTEKSQNLITLEDIAIYFGRHYQTVAKIISKLPNFPKPVTPVTVDQQNSRPRYIAGEVVRWGRINAKPY | not soluble
19 | MGAGPSDHRAITLEGTTVMVPVYNSTAQQSPYQLTTTADGGVALHHQGELTTTLETPPEPHFYNLQTAESIPYKAIALLHGKDVLATTLQQTCIRFRDRSESCQFCAIEQSLTSGQTIVRKTPEQVAEVVAAAVRLDGVRQLVMTTGTPNSRDRGARLMAETAAAVKAVVDIPIQAQCEPPDDPVWFSRMKAAGVNSLGMHLEVVEPEVRRRILPGKSELTLEHYYRAFEQAVAVFGRGEVSTYLLAGLGDSADSLIDCSRRLIAIGVYPFIVPFVPIAGTPLERHPAPTTAFMLQIYEAVGALLHDSDLRSAAMSAGLEHHHHHH | not soluble
20 | MGSDKIHHHHHHMYNNINYKVLWGHSEYDGSFEIMEFRQLSYFISVAKYLSFTKAAEEHHIAQTAISQQISTLEKQLNVKLFVRNNRAVELTDAGRVLLKEADLITSRVVEAERKTKQAALGFEGSLNVGILGSSEKNFLPVILKRFHKLYPKIGINLSRNSYKKLADDMKGGHLDITFIFPYELNDISHVKYRKLFDYEICLVVNKEHRLARYKKIDVKEIKNEKFIVVGKEEAPSTVKQMRKNCMGDGFKLNVVAECKNLDTMLIMVEAGMGVALVPTCVANDSNNNISYIELENSKQIVEIGVAWMEGNMNPTLKLFLGVLSDLYWDN | not soluble
21 | MGSDKIHHHHHHLRTNTPTFINIRNSYKIKTIMHFHLSGNAASDLKIVRFEDFSGSADAFRQHWYVHRVTMQRRKHVIVMEESTRYALLFCRVTQPFFKNFPEFFADTLWRHIVSLCAVPTARFGSIQAMTTDMCSENIYHKGLNRSVQAHIRDSFLTLECYLLHEPPINLARQEDVFQMNIRINETPRTRYGEKNYIWSLREFQRLWCEHLGVAAVRG | not soluble
22 | MLTSEQVKAMIEGVAKCEHIEVEGDGHHFFAVIVSSEFEGKARLARHRLIKDGLKAQLESNELHALSISVAATPAEWAAKAQ | not soluble
23 | MSLIKVPCMQITNMHCSGQTVSLAAGDYHATIVTVGAGLAELTFQGCHLVIPHKPEEMPLAHLGKVLIPWPNRIANGCYRYQGQEYQLPINEHSSKAAIHGLLAWRDWQISELTATSVTLTAFLPPSYGYPFMLASQVVYSLNAHTGLSVEIASQNIGTVAAPYGVGIHPYLTCNLTSVDEYLFQLPANQVYAVDEHANPTTLHHVDELDLNFTQAKKIAATKIDHTFKTANDLWEMTITHPQQALSVSLCSDQLWVQVYSGEKLQRQGLAVEPMSCPPNAFNSGIDLLLLESGKPHRLFFNIYGQRKMGHHHHHHSH | not soluble
